# From paper PMC5478280
# Assays:
# [1] = biological target: Csy complex (type I-F crRNA-guided surveillance complex), wild type (P. aeruginosa (strain PA14)) (UniProt Q02ML9); experiment: cryo-EM structure
# [2] = biological target: Csy complex with Cas7f K85A (P. aeruginosa (strain PA14)) (UniProt Q02ML9); experiment: SPR
stoichiometry N [1],kd1 (dissociation rate) [2],Substance
1,–,anti-CRISPR protein AcrF2 (natural protein)
2,0.00031 s⁻¹,anti-CRISPR protein AcrF1 (natural protein)
